# Entries after “also recorded” stand apart in the source; their conditions may differ.
# B1: Chitinase 5: chitinolytic enzyme from P. orarium, SEQ ID NO: 5, recombinant with PelB signal peptide and 6×His tag (protein, listed as Photobacterium orarium)
# chain: MAMGWSQININGVQKWEEAYSLNVDAANEIITIGAADTAGALYASQSLLQLVDGNKVPEVQITDAPRFAYRGFSVDAVRNFRTKDAIIQLLDQMAAFKLNKLHLRLADDEGWRIEIAGLPELTDVGATRCHDPEEKACILPFLGAGPDGSPESNGYYTATDYQDILSHAAALNIEVVPEIDIPGHAHAAIKAMEARYDHYAAQGNMAEANKYLLTDFNDTTQYLSVQMFTDNAINVCMESSYNFVDAVVSGLVSLHQGVQPLKTFHFGGDEIAGAWINSPACQDFIANNTDGVHSVSDLSRYFVERISVITANYGLDMAGWEDGLMHDGQVYPRSQMANNQLWGNAWQNIWEWGVADRAYNLANNDYKVVYNHATHLYFDHPYEPDPNERGYYWAPRFTDTRKTFGFMPDDVFANADFTRAGAPITKAEVVASAGVKKLLKPENVLGLQGSLWAEAVRTEDQFEGMIFPRVLGLAERAWHTATWEANDNAGIALDETGRNADYNHFANLLGQKVLPKLEQAGIAFNLPVPGGVIENGVLQANSTFPGLTIEYSTDQGTSWQSYDHLNPPAVAAGVQLRTVSGQRTSRVTTVNIE
# modifications: PelB signal peptide; 6xHis tag; Chitinase 5
# B2: Chitinase 2: chitinolytic enzyme from P. orarium, SEQ ID NO: 2, recombinant with PelB signal peptide and 6×His tag (protein, listed as Photobacterium orarium)
# chain: MATANYNPDGVYSAGEQVIYQGATYQALRSTENEAPDTYLGDAWQQVNAQNVTSSTTPTYPAYQSSAVYVGGDHVSYNSQIYKAKWWTQGEAPDATPGTGVWEWVSADNNPDPGPGPDPDPTPEPTPANGIIGQNPDGSYIMSKTYLDAREAELTSSPEFAAVLASISTRDNAVVEAVVPGLSTNPDNVKRVEALISEQKWDALFPERNVVYTYSNFLKAVAKFKGFCATYTDERAAQSDAICAKSLAVMFAHFTQETGAHNPHSPYEEWRQGLFFVREAGCSEEASSCGYNSECAASNWQTEQWPCGTNPDGSYVKYFGRGAKQLSYHYNYGPFSDFIFNDVNVLLQDPDRVADSWLNLASAVFFFVYPQPPKPSMLHVIDGTWQPTAADIAEKRVPGFGVTTMIINGGIECTLDTEKPQSVNRIKYYRGHAAALGVAIPADEQLGCAGMKAFKKTGDSTFGLYWENDWSYYPDNPGGSSFACRIESGYQTAHTTLKKGDYAKCIQKYYGVTIE
# modifications: PelB signal peptide; 6xHis tag; Chitinase 2
# B3: Chitinase 4: chitinolytic enzyme from P. orarium, SEQ ID NO: 4, recombinant with PelB signal peptide and 6×His tag (protein, listed as Photobacterium orarium)
# chain: MAQAAANCRPDGLYQTPGVTVPYCTVYDQDGREKMGVDHPRRVIGYFTSWRSGNDPQSSYLVNDIPWDSLTHINYAFVSIGSDGKVNIGNVNNPDNPAVGKEWPGVEIDPALGFKGHFGALATAKAQHGVKTLISIGGWAETGGHFDDNGNRVADGGFYTMTTNADGSINHQGIQTFADSAVAMMRQYKFDGLDIDYEYPTSMQGAGNPDDFAYSDAMRPHLMKSYHELMKVLREKLDQASAQDGHHYMLTIAAPSSGYLLRGMETMSVTKYLDYVNIMSYDLHGAWNDYVGHNASLFDSGLDAELEAGNVYGTAQYKKTGYLNTDWAYHYFRGSMPAGRINIGVPYYTRGWQGVTGGTNGLWGKAALPNQSDCPTGTGAGTSNCGYGAIGIDNMWHDKDANGNEMGAGSNPMWHAMNLANGVYGSYTAAYGLDPVNDPQDALTGTYTRHYDSVSVAPWLWNADKKVFLSTEDKESINTKADYVIEQGIGGIMFWELAGDYSCYNLDANGNRTTVDPTENACKTGNGEYHMGDTMTKAIHNKFATATPYGNTLAEGAIPTEAVNIDVSVTGFKVGDQNYPLNPTMTLTNKTGQTLPGGTEFQFDIPTSTPDNMSDQSGANLQVISSGHTRGDNIGGLDGNFHRVAFTLPSWKQLGNNESFELTLNYFLPISGPANYSVRVNNADYALAFEQPDLPIADLSNGGGDNGGGDGNNGDCVTTGVNTYPNWPQTDWAGNPSHAGTGDKIIYNGAVYQAKWWTNSVPGSDGSWDTVCTVQIE
# modifications: PelB signal peptide; 6xHis tag; Chitinase 4
# Experiments:
# [1] = Enzyme kinetics on chitin powder (Michaelis-Menten non-linear fit); type: biochemical; conditions: 2 μM enzyme, 0-150 mg/ml chitin powder
# Experimental: Enzyme kinetics were determined using chitin powder as a substrate and the optimum enzyme to substrate ratio could be determined as well as Vmax and Km values. The concentrations of chitin powder varied
# from 0 mg/ml up to 150 mg/ml while amount of enzyme was kept constant (2 μM). The initial velocities (V0) versus substrate concentration ([S]) were plotted as Lineweaver-Burk and Michaelis-Menten curves using GraphPad software (FIG. 7).
# Maximum reaction velocities (Vmax) and Michaelis-Menten constants (Km) were determined using a non-linear fit Michaelis-Menten model (Table 4.6). Thereby, optimum enzyme-substrate ratios were determined that would allow a maximization of substrate conversion rates. Furthermore, the Km indicated the reciprocal enzyme-substrate affinity for C1-C5. Higher Km values reflect an overall lower affinity and thus reduced conversion efficiencies. […] In comparison, higher Km values for C2 and C5 reflected an overall lower affinity to insoluble chitin.
# (§1) Enzyme samples were incubated at different temperature (10-60° C., 10° C. increment) and pH (4-11, increment 1) using different buffer systems (Acetate, Tris-HCl, MES, total molar concentration 100 mM), as well as NaCl content (0, 1. 2.5, 5, 10 and 20% w/v) to determine optimum reaction conditions. All experiments were carried out at 1.0 ml scale using 2 μM of the respective enzymes and a 5% (wv) suspension of chitin powder extracted from shrimp shells (˜400.000 g/mol; Carl, Roth) in 100 mM MAT buffer. For the determination of the substrate specificity, chitin powder (5% w/v), glycol chitin (10% v/v), colloidal chitin (5% w/v), chitosan [DA 15-25%, medium molecular weight, Sigma-Aldrich] (5% w/v) and microcrystalline cellulose powder (Sigma Aldrich) (5% w/v) were investigated, respectively. The effect of several potential co-factors on activity was elucidated at a concentration of 1 mM. Additionally, the effect of detergents [SDS 0.5% (w/v), Tween-20 and Triton X-100 both at 0.5% (v/v)] and chemicals (Imidazole 100 mM, EDTA 1 mM) on enzymatic activity was assessed. Samples were incubated in a thermomixer for 16 h at 900 rpm. After incubation, samples were analyzed using the enzyme assay. Thermostability was assessed after incubation of recombinant chitinases at 60° C. for different durations followed by the quantification of residual enzyme activity under standard assay conditions.
# [2] = Substrate specificity, reducing end assay; type: biochemical; conditions: in % activity of chitin powder; 16 h at optimum conditions, 50 mg/ml substrate
# Experimental: Different chitinous substrates were tested to assess the substrate affinity of the novel chitinases relative to untreated chitin powder. […] As expected, the conversion of colloidal chitin is more efficient compared to chitin powder as it provides an overall smaller particle size and thereby larger surface area. Chitosan powder (degree of acetylation: 15%) was also degraded efficiently and high chitosanase activity was observed especially for C1, C3, C4 and C5. Merely basal activity was detected when cellulose was utilized as a substrate for all enzymes.
# as §1
# Fusarium oxysporum = assay: Minimum inhibitory concentration (MIC) test on fungal pathogens; type: cell-based; design: key: xx = no growth/strong inhibition; x = small inhibition; conditions: start concentration 100 μg/ml
# [3] = TLC analysis of cleavage patterns with chitin standard molecules; type: biochemical; conditions: for hydrolysis products from chitin pentamers / hydrolysis products from chitin trimers: 4 mg/ml, 16 h, TLC; for cleavage mechanism (exo-/endo-chitinase activity): TLC of products from oligomeric or polymeric chitin substrates
# Experimental: monomeric oligomers. Chitosan was degraded to a crude mixture of multiple oligomers ranging from dimers to pentamers and even larger undefined yet water-soluble fragments that migrated slightly from the starting point. Further analysis of the cleavage patterns was carried out using chitin standard molecules of DP2-DP6 and incubating them at 4 mg/ml concentration with the individual enzymes (FIG. 9).
# Dimeric chitin molecules were not converted by any of the enzymes. […] All chitinases degraded chitin tetramers to dimers as a single product. […] Chitin hexamers were degraded to dimers and trimers. Although all chitinases are different in their structure and present different glycosyl hydrolase domains hydrolysis products in general were similar.
# C2, 4 and 5 yielded similar product patterns when incubated with insoluble substrates. […] The presented data underline that the novel chitinases are all suited for the degradation of powdery chitin without any further harsh chemical pre-treatment.
# Hydrolysis products were analyzed using 10×10 cm TLC Silica gel 60 F254 plates (Merck, Darmstadt, Germany) and a mixture of butanol:methanol:25% ammonia:H2O (5:4:2:1) as mobile phase. A total sample volume of 0.5 μl was applied in 0.25 μl spots. Chitin standard sugars (Megazyme, Chicago, USA) (5 mg/ml) were applied to the plate (0.5 μL in 0.25 μL spots) as size standard for the determination of the DP. After separation, the plate was air-dried and the developing solution (200 ml Acetone, 30 ml phosphoric acid (85%), 4 ml aniline, 4 g diphenylamine) was sprayed on the plate followed by spot visualization at 300° C. using a heat gun.
# [4] = Temperature, pH and NaCl optima and temperature stability of recombinant chitinases (reducing end assay); type: biochemical; conditions: for enzyme activity (relative): 20% (w/v) NaCl; for enzyme activity (relative) / Optimum salinity: pH 8, 30° C.; for Optimum pH: 30° C., pH 4-11; for Optimum salinity: 0-20% w/v NaCl
# Experimental: All enzymes were first characterized regarding their temperature and pH-optima as well as the optimum NaCl content as the enzymes were isolated from a sea-water microorganism. As the future intention is to integrate these novel enzymes in a degradation processes of natural chitin, all parameters were determined using chitin powder as a substrate instead of pre-treated analogs such as colloidal chitin, glycol chitin or artificial fluorogenic substrates. […] (FIG. 5A). Next, enzyme temperature stability was investigated (FIG. 51). […] Enzyme C1 retained a 50% residual activity after 240 min incubation at 60° C., while the activity of the other chitinases dropped below 50% after 15 min and remained on that level.
# Given the marine origin of the P. orarium strain, the effect of salt was also evaluated, testing the addition of NaCl to the standard buffer. […] Increasing NaCl amounts up to 20% (w/v) reduced enzyme activity substantially to 10% for C2, 4 and 5, with C1 and C3 showing highest tolerance (65% activity).
# For the determination of enzymatic activity of recombinant chitinases, a reducing end assay was carried out [Svein et al., Carbohydr Polym, 2004. 56(1): p. 35-39.]. Fractions containing chitinases were incubated with 5% (w/v) chitin powder extracted from shrimp shells (˜400.000 g/mol; Carl Roth) in MAT buffer for 2 h in an overhead shaker at ambient temperature (standard conditions). Samples were centrifuged at 13000×g for 2 min and 40 μl of the supernatant was mixed with 40 μl 0.5 M NaOH and 40 μL of a reagent containing 1.5 mg/ml 3-Methyl-2-benzothiazolinonhydrazon and 0.75 mg/ml Dithiothreitol. Samples were incubated at 80° C. for 15 min and then thoroughly mixed with 80 μl of 0.5% (w/v) FeNH4(SO4)2)×12H2O, 0.5% (w/v) sulfamic acid and 0.25 M HCl. After cooling down to room temperature, 100 μl of the samples were measured at 620 nm. A calibration curve of N-acetyl-glucosamine was constructed freshly for each measuring cycle. One unit [U] was defined as the amount of enzyme required to release 1 μmol of reducing sugars per hour.
# as §1
Molecule,Km (enzyme-substrate affinity) [1] [mg/mL],Vmax (maximum reaction velocity) [1] [U/ml],"Relative activity, Cellulose [2] [%]","Relative activity, Chitin [2] [%]","Relative activity, Chitosan [2] [%]",growth inhibition of Fusarium oxysporum in the MIC test (Fusarium oxysporum),hydrolysis products from chitin pentamers [3],hydrolysis products from chitin trimers [3],cleavage mechanism (exo-/endo-chitinase activity) ([3]; listed as C5),enzyme activity (relative) [4] [%],"Optimum pH ([4]; chitin powder, listed as C5)",Optimum salinity ([4]; chitin powder) [% NaCl],cleavage mechanism (exo-/endo-chitinase activity) [3],"Optimum pH ([4]; chitin powder, listed as C2)",Optimum pH ([4]; chitin powder),"Optimum temperature ([4]; chitin powder, pH 8, range 10-60° C.) [°C]"
B1,36.0,89.5,11.2 ± 1.1,100,117.8 ± 1.7,xx,trimers and dimers,no activity,no exochitinase activity; also recorded: endo-chitinase activity,10,9,0,–,–,–,–
B2,61.8,175.4,10.0 ± 1.1,100,71.4 ± 6.7,xx,trimers and dimers,no activity,–,10,–,1,endo-chitinase activity,10,–,–
B3,22.2,218.6,10.4 ± 0.9,100,141.3 ± 5.5,xx,trimers and dimers,dimers and monomers,–,–,–,1,endo-chitinase activity,–,8,30

# From US20240287489A1, “CHITINOLYTIC ENZYME-BASED PLANT PROTECTION AGENTS” (GLOBACHEM NV, priority 2021, published 2024)
